The target in this experiment is T1, Recombinant human His-tagged TfR1 (a.a. 89-760) (ACRO Biosystems, CD1-H5243) (human, UniProt P02786 89-760).
T1 construct: range 89-760; Bought protein; Captured and amine-coupled on an NTA chip; also called human TfR1; transferrin receptor 1; not shown: His tag (printed 'Hiss-tagged')
Put plainly: SPR (Biacore), TfR1 captured/coupled on NTA chip, peptide as analyte.

Starred links: 1 amine or outer side, 2 acyl side, 3 side chain; linkers in the order of their positions; H or OH if unused. Positions of bridges follow the written chain, without caps; N, C: chain ends. Non-standard residues stand in square brackets, D forms with d. TATB = O=C(C[*:1])N1CN(C(=O)C[*:2])CN(C(=O)C[*:3])C1; Val(3-OH) = CC(C)(O)[C@H](N)C(=O)O; Hyp = O=C(O)[C@@H]1C[C@@H](O)CN1; Tle = CC(C)(C)[C@H](N)C(=O)O

T1 sequence (P02786 89-760 limits assumed): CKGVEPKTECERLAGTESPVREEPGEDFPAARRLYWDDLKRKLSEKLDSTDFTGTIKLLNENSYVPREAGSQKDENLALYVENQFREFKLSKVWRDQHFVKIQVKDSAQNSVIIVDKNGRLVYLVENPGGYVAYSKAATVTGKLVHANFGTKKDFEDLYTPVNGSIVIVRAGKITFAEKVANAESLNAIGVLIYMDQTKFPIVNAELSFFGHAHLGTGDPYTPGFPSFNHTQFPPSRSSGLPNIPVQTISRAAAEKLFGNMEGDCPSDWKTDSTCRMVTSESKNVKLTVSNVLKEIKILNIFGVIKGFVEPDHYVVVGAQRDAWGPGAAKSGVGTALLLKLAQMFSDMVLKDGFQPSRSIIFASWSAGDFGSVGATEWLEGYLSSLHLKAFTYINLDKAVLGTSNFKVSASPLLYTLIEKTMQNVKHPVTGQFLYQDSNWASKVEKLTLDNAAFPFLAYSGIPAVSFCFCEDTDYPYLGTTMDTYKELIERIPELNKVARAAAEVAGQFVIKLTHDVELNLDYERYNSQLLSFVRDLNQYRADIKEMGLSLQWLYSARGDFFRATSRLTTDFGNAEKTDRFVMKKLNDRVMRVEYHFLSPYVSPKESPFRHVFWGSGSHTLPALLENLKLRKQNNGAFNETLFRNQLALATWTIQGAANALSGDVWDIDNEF

B1: BCY23211 (peptide)
peptide: CPXDAYLGCXSYCEPX
modifications: CP[HyP]DAYLGC[tBuGly]SYCEP[hTyr]: HyP at 3, tBuGly at 10, hTyr at 16; N-terminal acetyl; C-terminal CONH2; Cys 1, 9, 13 bonded to TATB scaffold
notes: Bicyclic peptide
As usually defined, the Kd is the concentration at which binding is half-saturated. On to B1, for which the Kd was determined as 7.7 nM.

B2: BCY23180 (peptide)
peptide: CXXDAYLGCXSYCEPW
modifications: not fully specified; C[HyP][HyP]DAYLGC[tBuGly]SYCEPW: HyP at 2 and 3, tBuGly at 10; N-terminal acetyl; C-terminal CONH2; Cys 1, 9, 13 bonded to TATB scaffold
notes: Bicyclic peptide
With B2, the Kd was determined as 50 nM.

B3: BCY23205 (peptide)
peptide: CPXDAYLGCXSYCEXW
modifications: CP[HyP]DAYLGC[tBuGly]SYCE[Oxa]W: HyP at 3, tBuGly at 10, Oxa at 15; N-terminal acetyl; C-terminal CONH2; Cys 1, 9, 13 bonded to TATB scaffold
notes: Bicyclic peptide
Turning to B3, the Kd worked out at 11 nM.

B4: BCY23515 (peptide)
peptide: Ac-CP[Hyp]DAYLGC[Val(3-OH)]SYCEPW-NH2
modifications: linker 1-9-13 via TATB
SMILES: CC(=O)N[C@H]1CSCC(=O)N2CN3CN(C2)C(=O)CSC[C@@H](C(=O)N[C@@H](CCC(=O)O)C(=O)N2CCC[C@H]2C(=O)N[C@@H](Cc2c[nH]c4ccccc24)C(N)=O)NC(=O)[C@H](Cc2ccc(O)cc2)NC(=O)[C@H](CO)NC(=O)[C@H](C(C)(C)O)NC(=O)[C@H](CSCC3=O)NC(=O)CNC(=O)[C@H](CC(C)C)NC(=O)[C@H](Cc2ccc(O)cc2)NC(=O)[C@H](C)NC(=O)[C@H](CC(=O)O)NC(=O)[C@@H]2C[C@@H](O)CN2C(=O)[C@@H]2CCCN2C1=O
notes: Bicyclic peptide
With B4, the Kd amounted to 85 nM.

B5: BCY23224 (peptide)
peptide: CPXDAYLGCXXYCEPW
modifications: CP[HyP]DAYLGC[tBuGly][HSer]YCEPW: HyP at 3, tBuGly at 10, HSer at 11; N-terminal acetyl; C-terminal CONH2; Cys 1, 9, 13 bonded to TATB scaffold
notes: Bicyclic peptide
As for B5, the Kd came to 1140 nM.

B6: BCY23202 (peptide)
peptide: CPXDAYLGCXSXCEPW
modifications: CP[HyP]DAYLGC[tBuGly]S[pCoPhe]CEPW: HyP at 3, tBuGly at 10, pCoPhe at 12; N-terminal acetyl; C-terminal CONH2; Cys 1, 9, 13 bonded to TATB scaffold
notes: Bicyclic peptide
Take B6: the Kd came to 23 nM.

B7: BCY23208 (peptide)
peptide: CPXDAYLGCXSYCEPX
modifications: CP[HyP]DAYLGC[tBuGly]SYCEP[DOPA]: HyP at 3, tBuGly at 10, DOPA at 16; N-terminal acetyl; C-terminal CONH2; Cys 1, 9, 13 bonded to TATB scaffold
notes: Bicyclic peptide
Consider B7, for which the dissociation constant Kd is 6 nM.

B8: BCY23185 (peptide)
peptide: CPXDAXLGCXSYCEPW
modifications: CP[HyP]DA[DOPA]LGC[tBuGly]SYCEPW: HyP at 3, DOPA at 6, tBuGly at 10; N-terminal acetyl; C-terminal CONH2; Cys 1, 9, 13 bonded to TATB scaffold
notes: Bicyclic peptide
For the molecule B8, the Kd was determined as 12 nM.

B9: BCY23209 (peptide)
peptide: CPXDAYLGCXSYCEPX
modifications: CP[HyP]DAYLGC[tBuGly]SYCEP[pCaPhe]: HyP at 3, tBuGly at 10, pCaPhe at 16; N-terminal acetyl; C-terminal CONH2; Cys 1, 9, 13 bonded to TATB scaffold
notes: Bicyclic peptide
Regarding B9, the Kd is 5.6 nM.

B10: BCY23184 (peptide)
peptide: CPXDAYLGCXSYCEPW
modifications: CP[Cis-HyP]DAYLGC[tBuGly]SYCEPW: Cis-HyP at 3, tBuGly at 10; N-terminal acetyl; C-terminal CONH2; Cys 1, 9, 13 bonded to TATB scaffold
notes: Bicyclic peptide
Take B10: the Kd is 13 nM.

B11: BCY23222 (peptide)
peptide: Ac-CP[Hyp]DAYNGC[Tle]SYCEPW-NH2
modifications: linker 1-9-13 via TATB
SMILES: CC(=O)N[C@H]1CSCC(=O)N2CN3CN(C2)C(=O)CSC[C@@H](C(=O)N[C@@H](CCC(=O)O)C(=O)N2CCC[C@H]2C(=O)N[C@@H](Cc2c[nH]c4ccccc24)C(N)=O)NC(=O)[C@H](Cc2ccc(O)cc2)NC(=O)[C@H](CO)NC(=O)[C@H](C(C)(C)C)NC(=O)[C@H](CSCC3=O)NC(=O)CNC(=O)[C@H](CC(N)=O)NC(=O)[C@H](Cc2ccc(O)cc2)NC(=O)[C@H](C)NC(=O)[C@H](CC(=O)O)NC(=O)[C@@H]2C[C@@H](O)CN2C(=O)[C@@H]2CCCN2C1=O
notes: Bicyclic peptide
As to B11, the Kd is 58 nM.

B12: BCY23218 (peptide)
peptide: Ac-CP[Hyp]DAYSGC[Tle]SYCEPW-NH2
modifications: linker 1-9-13 via TATB
SMILES: CC(=O)N[C@H]1CSCC(=O)N2CN3CN(C2)C(=O)CSC[C@@H](C(=O)N[C@@H](CCC(=O)O)C(=O)N2CCC[C@H]2C(=O)N[C@@H](Cc2c[nH]c4ccccc24)C(N)=O)NC(=O)[C@H](Cc2ccc(O)cc2)NC(=O)[C@H](CO)NC(=O)[C@H](C(C)(C)C)NC(=O)[C@H](CSCC3=O)NC(=O)CNC(=O)[C@H](CO)NC(=O)[C@H](Cc2ccc(O)cc2)NC(=O)[C@H](C)NC(=O)[C@H](CC(=O)O)NC(=O)[C@@H]2C[C@@H](O)CN2C(=O)[C@@H]2CCCN2C1=O
notes: Bicyclic peptide
Take B12: the Kd was determined as 55 nM.

B13: BCY23220 (peptide)
peptide: Ac-CP[Hyp]DAYDGC[Tle]SYCEPW-NH2
modifications: linker 1-9-13 via TATB
SMILES: CC(=O)N[C@H]1CSCC(=O)N2CN3CN(C2)C(=O)CSC[C@@H](C(=O)N[C@@H](CCC(=O)O)C(=O)N2CCC[C@H]2C(=O)N[C@@H](Cc2c[nH]c4ccccc24)C(N)=O)NC(=O)[C@H](Cc2ccc(O)cc2)NC(=O)[C@H](CO)NC(=O)[C@H](C(C)(C)C)NC(=O)[C@H](CSCC3=O)NC(=O)CNC(=O)[C@H](CC(=O)O)NC(=O)[C@H](Cc2ccc(O)cc2)NC(=O)[C@H](C)NC(=O)[C@H](CC(=O)O)NC(=O)[C@@H]2C[C@@H](O)CN2C(=O)[C@@H]2CCCN2C1=O
notes: Bicyclic peptide
Regarding B13, the Kd is 72 nM.

The record behind these values is patent publication US20250276073A1 (Bicycle, published 2025).
